This passage reports amyloid nucleation score results from the supplement of paper PMC12042874.

± gives the uncertainty stated by the source.

This series can be described thus: amyloid nucleation score (Sup35N fusion, yeast selection) (log enrichment); library NNK3; higher = more nucleation; inactive = no reads after selection. An outline of the steps:
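Nucleation score is defined as the DiMSum log enrichment of output over input reads, with centring on the mode score of non-aggregating sequences. A minimum of 100 input reads was required for each sequence. Reads came from Illumina sequencing of plasmid inserts from psi-negative yeast expressing Sup35N fused to peptides of 20 random codons, induced with 100 μM copper sulfate for 24 hours and grown 7 days at 30°C on medium lacking adenine and uracil.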
On to NNSTRLIWWCMVKMRYNHCE, for which the amyloid nucleation score entry is “inactive”.
As to NNVFERQFRHLNSVDGPIDN, the amyloid nucleation score result was “inactive”.
Under NPIRGYLMYSPALSPLVG stands “inactive”; under NPRNMTPSLVFTDWLS, “inactive”.
With NPVRSKWYKVCCDNVGVYMD, the amyloid nucleation score result is “inactive”.
Consider NQWLCLHLCQR, for which the amyloid nucleation score entry is “inactive”.
In the case of NQYLLCMLMWNARSGSRSMI, the amyloid nucleation score result was “inactive”.
NRAGGICDKIRAQGYSYHSM: the amyloid nucleation score was determined as 0.475 ± 0.72.
Take NRAVHKSRWHRMRTFKDERR: the amyloid nucleation score result is “inactive”.
For the substance NRCTCAV, the amyloid nucleation score result was “inactive”.
NRENFMVTLLSLWTCNTCQV came in with an amyloid nucleation score of 2.46 ± 0.054.
As for NREQLSSNKRNFASHRWTSV, the amyloid nucleation score result is “inactive”.
Substance NRFWLLCDFLFVHTCV displayed an amyloid nucleation score of 0.897 ± 0.2.
Consider NRGFYQ, for which the amyloid nucleation score entry was “inactive”.
Next, NRGSYVFMNRSEPVCSWISK: 1.09 ± 0.1.
Regarding NRMQVMLSVVRSSLFVWMQW, the amyloid nucleation score result is “inactive”.
As to NRNYVGPWTLKMGLVC, the amyloid nucleation score result was “inactive”.
Under NRPTAVSFCK stands “inactive”; under NRSIIVIWWNSRSSSNSWVG, 2.1 ± 0.072; under NRTCNDLMTFYSWGSSR, “inactive”.
Consider NRTDHTLNCVEIFAWIWFNL, for which the amyloid nucleation score entry is “inactive”.
Next, NRTMLFEEKYVG: “inactive”; NRTSLCKEDLVRVSFDGYLL: “inactive”.
Next, NRVAYTAQCQIIFCVGGYCL: 2.72 ± 0.069; NRVMSVLF: “inactive”; NRVSFPRGSKFCTFL: “inactive”.
On to NRYRTYVCLKDKRRSFKSGM, for which the amyloid nucleation score result was “inactive”.
In the case of NSDNHYFQRTMTNFANGKGC, the amyloid nucleation score result is “inactive”.
NSDVYVSFLSVCVFAVRCLL: the amyloid nucleation score entry is “inactive”.
On to NSFIVVIYYRVRSYRYTD, for which the amyloid nucleation score entry was “inactive”.
Under NSGAWLSMEMMPCRMSVYAC stands “inactive”.
For NSGGFSKDDGNGYKA, the amyloid nucleation score entry is “inactive”.
Regarding NSHLSKNGQWIPLSAPATTT, the amyloid nucleation score result was “inactive”.
On to NSNFFL, for which the amyloid nucleation score entry is “inactive”.
For NSNLDSSVYSVILYGLGVWM, the amyloid nucleation score stood at 1.18 ± 0.094.
Turning to NSVGFACKEFMHVTAQTHKM, the amyloid nucleation score result is “inactive”.
For the substance NSYFGMWVITGFFLASMCIR, the amyloid nucleation score entry was “inactive”.
NTDVVCMLNWLLTW: the amyloid nucleation score entry was “inactive”.
Consider NTFTPVFLTSKYSMRYGLIM, for which the amyloid nucleation score result is “inactive”.
With NTGLNFCRASLSWTLGLYSS, the amyloid nucleation score entry was “inactive”.
As to NTGVENGREVDYARGANRSP, the amyloid nucleation score result is “inactive”.
For NTRMDNLTNAWRAQYALSP, the amyloid nucleation score entry is “inactive”.
For NTVLATYRTNAVFGKTTHYN, the amyloid nucleation score entry was “inactive”.
With NTWPTPSLWLVLNKTLRKTS, the amyloid nucleation score result was “inactive”.
As for NTYVIVPWKLLTNFDEFPHR, the amyloid nucleation score entry is “inactive”.
For NVASM, the amyloid nucleation score entry is “inactive”.
In the case of NVGTS, the amyloid nucleation score result is “inactive”.
Turning to NVIMVFVLCCFWCEGTQKHV, the amyloid nucleation score amounted to 1.83 ± 0.056.
With NVIRGGQGLVGPAIMFRDGV, the amyloid nucleation score result was “inactive”.
Next, NVLYLQLRPMNLCEANSEIG: “inactive”; NVMIDDVLARYYRVRRGLVG: “inactive”.
Turning to NVNEQSHPM, the amyloid nucleation score entry was “inactive”.
In the case of NVYIVFFNFKTQ, the amyloid nucleation score came to 2.34 ± 0.058.
On to NVYMRSYKIRSCMTFRTLAL, for which the amyloid nucleation score entry is “inactive”.
Under NWDWADE stands “inactive”.
Under NWIYYTMWSL stands 0.581 ± 0.17; under NWLDWLGRPPRDIGAWNGSS, “inactive”.
With NWNIGPRKLCKWRCR, the amyloid nucleation score result is “inactive”.
On to NWTQSIFVGGQRDRLVISRT, for which the amyloid nucleation score entry is “inactive”.
Next, NWYDSWRVFAQNKDCSLWA: “inactive”; NYEQCNSHSCMIFLFRTDYS: “inactive”.
For NYFYRPYSEDSVITQMIVVV, the amyloid nucleation score entry is “inactive”.
As to NYGFGRVSAFYHQLA, the amyloid nucleation score result was “inactive”.
For NYGNPRRMVCSEYGWESLCK, the amyloid nucleation score result was “inactive”.
NYKRTLEESN: the amyloid nucleation score was found to be 1.17 ± 0.18.
On to NYTVLYGNSLSFFRSHLCRV, for which the amyloid nucleation score result is “inactive”.
Substance NYVCGVIAVNVVMNSSNNWR came in with an amyloid nucleation score of 2.66 ± 0.051.
As to NYVVSFYISSNFWYDVVNCD, the amyloid nucleation score is 0.294 ± 0.22.
Substance NYYINKSMVRSRWFCCLPLW showed an amyloid nucleation score of 2.34 ± 0.067.
On to PAADHLAKRCSMICSSSFAL, for which the amyloid nucleation score entry is “inactive”.
PAGTICGCRHGRLWNGPSRW: the amyloid nucleation score entry is “inactive”.
Take PALMDLGYRYVSRNFDL: the amyloid nucleation score result was “inactive”.
Regarding PAPHRIKRIL, the amyloid nucleation score result was “inactive”.
For PCFLTNEDFYMKFTRN, the amyloid nucleation score entry is “inactive”.
For the substance PCHHFFFA, the amyloid nucleation score entry was “inactive”.
Next, PCLYLGIFARTKMHPTNDCM: -0.88 ± 1.1; PCPFILFYSEFTWSRY: “inactive”; PDDCVGRSD: “inactive”.
PDFNLWRTEMLSYNGWK: the amyloid nucleation score result was “inactive”.
As for PDHEMGSHLLV, the amyloid nucleation score entry was “inactive”.
Take PDHSHHCV: the amyloid nucleation score result is “inactive”.
Under PDKWSPGAYVKWWVGTKVQM stands “inactive”.
For the substance PDRCFD, the amyloid nucleation score entry is “inactive”.
As to PENDRNMLLVSVIVPRYIAT, the amyloid nucleation score entry was “inactive”.
PETMCLGAKRFITGRETREL had an amyloid nucleation score of 0.588 ± 0.14.
In the case of PFACAVAKNPHES, the amyloid nucleation score result was “inactive”.
For the substance PFCVCRLL, the amyloid nucleation score result is “inactive”.
Regarding PFENHSYVCSGSRYNGTLWE, the amyloid nucleation score entry is “inactive”.
In turn, PFFDFSDINITEPE displayed an amyloid nucleation score of -0.306 ± 0.71.
The substance PFGGRR registered an amyloid nucleation score of 0.013 ± 0.47.
Turning to PFGWSVLGTGASGAEIQLVE, the amyloid nucleation score entry is “inactive”.
Under PFHRIPISVSLGYAFGTRCS stands “inactive”; under PFLTTKIVQVAGDLVNMFYE, 1.24 ± 0.16.
Consider PFSSGQSVEYL, for which the amyloid nucleation score result is “inactive”.
Next, PFSYDLRNFNSWQIGNGGLM: “inactive”; PFTTSYPDVQLTMKFNSWRN: 1.56 ± 0.13.
Substance PFVSVSVCTSLKGCSR came in with an amyloid nucleation score of 1.8 ± 0.1.
